# Data taken from patent US20060074018A1, “Methods of diagnosing & treating diabetes and insulin resistance” (Metabolex Inc, priority 2002, published 2006).
# Experiments:
# TIEG mRNA = assay: Gene expression profiling of muscle samples on custom Affymetrix chips, probe set mbxhummus23808; format: in vivo, human; details: muscle of diabetics, Basal sample
# Source text: (§1) The molecular mechanism by which thiazolidinediones (TZDs) cause an increase in peripheral insulin sensitivity was studied. Genes in muscle or fat whose expression is altered by TZDs may lie on a pathway leading from TZD treatment to increased insulin sensitivity. Modulators of such genes can elicit the same effect as TZD treatment. Moreover, such modulators can lack some of the side effects of TZD. The majority of glucose disposal occurs in muscle. For this reason, gene expression profiling in human muscle from diabetics treated with troglitazone was used to identify genes important for TZD action and therefore treatment of diabetes and insulin resistance. […] The gene expression profile for each individual was determined by hybridization of cRNA to custom synthesized Affymetrix chips. Gene expression profile differences were calculated as follows. […] The raw data was analyzed by a statistical test to remove ‘outliers’. The mean ‘average difference score’ was then calculated from the average difference scores for all individuals in a particular treatment group. Genes were determined to be changed in condition 1 (such as basal diabetics before trogliazone (tro) treatment) versus condition 2 (such as basal diabetics after troglitazone treatment) by calculating the Students t test statistic between the two conditions and selecting those with t less than or equal to 0.05. […]
# [1] = system: connective tissue growth factor (CTGF) mRNA; assay: Gene expression profiling of muscle samples on custom Affymetrix chips, probe set mbxhummus 24330; format: in vivo, human; details: muscle of diabetics, Clamp sample
# Source text: as §1
# TIEG expression = assay: Real time PCR analysis of muscle samples, TIEG; format: in vivo, human; details: mean post-Tro/mean pre-Tro
# Procedure: (§2) The gene expression changes observed in the human muscle samples derived from lean and diabetic individuals or from diabetic individuals post-Troglitazone treatment, were further confirmed by the use of real-time quantitative PCR. A combination of specific PCR primers and a Taqman probe were designed to detect and quantify expression levels for each gene. Relative gene expression levels were determined in this manner in each patient and the mean expression level in either the lean or diabetic patient population was then calculated.
# CTGF expression = assay: Real time PCR analysis of muscle samples, CTGF; format: in vivo, human; details: mean post-Tro/mean pre-Tro
# Procedure: as §2
# 3T3-L1 adipocytes [2] = assay: Glut 4 translocation analysis; format: cell-based, murine; details: for Fold Change (Mean hTIEG/Mean LacZ), cells positive for cell surface Glut 4 / Fold Change (Mean hCTGF/Mean LacZ), cells positive for cell surface Glut 4: n = 3; for Glut 4 translocation with insulin (in words) / Basal Glut 4 translocation (in words): over-expression in 3T3-L1 adipocytes; for Glut 4 translocation with insulin (in words): all insulin concentrations tested; for Basal Glut 4 translocation (in words): no insulin
# Source text: One analysis called “Glut 4 translocation” involves over-expressing the gene in 3T3-L1 adipocytes and then monitoring the ability of insulin to cause the movement (translocation) of the major insulin-regulated glucose transporter, Glut 4, to the cell surface. The cDNA encoding the human gene was sub-cloned into the mammalian expression vector pcDNA3.1 which provides for a V5 epitope tag. This plasmid encoding the human gene was then introduced into differentiated murine 3T3-L1 adipocytes along with a cloned Glut 4 expression construct using an electroporation procedure essentially as described in Kanzaki et al. J. Biol. Chem 275 7167-7175 (2000). A plasmid expressing LacZ was used as a negative control. After stimulation with increasing concentrations of insulin, cells co-expressing both the human gene and cloned Glut 4 were scored for the presence of Glut 4 at the cell surface using fluorescence microscopy.
# L6 myotubes = assay: Glucose transport analysis in L6 myotubes; format: cell-based
# Procedure: (§3) In some instances another analysis called “glucose transport” was used. This involves over-expressing the gene in either differentiated 3T3-L1 adipocytes or differentiated L6 myotubes and then monitoring the ability of insulin to stimulate glucose transport into these two cell types. A recombinant adenovirus encoding the human gene tagged with a FLAG epitope tag was prepared essentially as described in Zhou et al. Proc. Nat. Acad. Sci. USA. 95: 2509-2514. 3T3-L1 adipocytes or L6 myotubes were infected with recombinant adenovims expressing the human gene. A virus expressing an irrelevant protein was used as the control. 24 h post-infection the cells are stimulated with increasing concentrations of insulin and glucose transport into the cells determined by the counting the accumulation of a radiolabelled glucose analog (2-deoxyglucose) essentially as describe in Kotani et al. Mol Cell. Biol. 18 6971-6982 (1998), Fujishiro et al. J. Biol. Chem. 276 19800-19806 (2001), Ross et al. Biochem. Biophys. Res. Commun. 302 354-358 (2003).
# 3T3-L1 adipocytes [3] = assay: Glucose transport analysis in 3T3-L1 adipocytes; format: cell-based, murine
# Procedure: as §3
# [4] = 3 months of Troglitazone treatment
# [5] = after 3 months of Troglitazone treatment, mean average difference score
molecule,measurement,setting,value
"Cc1c(C)c2c(c(C)c1O)CCC(C)(COc1ccc(CC3SC(=O)NC3=O)cc1)O2 (stereo not drawn) [Troglitazone, troglitazone]",Fold Change diabetic post-trog/diabetic pre-trog (TIEG),TIEG mRNA; [4],0.65
same,Diabetic Post-Trog Mean Expr (TIEG),TIEG mRNA; [5],2634
same,Fold Change diabetic post tro/diabetic pre tro (Connective Tissue Growth Factor),[1]; [4],0.07
same,Diabetic Post-Trog Mean Expr (Connective Tissue Growth Factor),[1]; [5],29
same,"Expression Fold change, TIEG, Diabetics + Tro/Diabetics − Tro",TIEG expression,0.69
same,"Expression Fold change, CTGF, Diabetics + Tro/Diabetics − Tro",CTGF expression,0.35
"hTIEG: human TIEG (SEQ ID NO:8) over-expressed in 3T3-L1 adipocytes from pcDNA3.1 plasmid (protein, listed as Homo sapiens, human transforming growth factor-beta (TGFB) inducible early growth response (TIEG)) MEERMEMISERPKESMYSWNKTAEKSDFEAVEALMSMSCSWKSDFKKYVENRPVTPVSDLSEEENLLPGTPDFHTIPAFCLTPPYSPSDFEPSQVSNLMAPAPSTVHFKSLSDTAKPHIAAPFKEEEKSPVSAPKLPKAQATSVIRHTADAQLCNHQTCPMKAASILNYQNNSFRRRTHLNVEAARKNIPCAAVSPNRSKCERNTVADVDEKASAALYDFSVPSSETVICRSQPAPVSPQQKSVLVSPPAVSAGGVPPMPVICQMVPLPANNPVVTTVVPSTPPSQPPAVCPPVVFMGTQVPKGAVMFVVPQPVVQSSKPPVVSPNGTRLSPIAPAPGFSPSAAKVTPQIDSSRIRSHICSHPGCGKTYFKSSHLKAHTRTHTGEKPFSCSWKGCERRFARSDELSRHRRTHTGEKKFACPMCDRRFMRSDHLTKHARRHLSAKKLPNWQMEVSKLNDIALPPTPAPTQ","Fold Change (Mean hTIEG/Mean LacZ), cells positive for cell surface Glut 4",3T3-L1 adipocytes [2]; Insulin 0 nM,1.34
same,"Fold Change (Mean hTIEG/Mean LacZ), cells positive for cell surface Glut 4",3T3-L1 adipocytes [2]; Insulin 1 nM,0.20
same,"Fold Change (Mean hTIEG/Mean LacZ), cells positive for cell surface Glut 4",3T3-L1 adipocytes [2]; Insulin 10 nM,0.11
same,Glut 4 translocation with insulin (in words),3T3-L1 adipocytes [2],significantly inhibited Glut 4 translocation at all insulin concentrations tested
same,Basal Glut 4 translocation (in words),3T3-L1 adipocytes [2],little or no effect on basal Glut 4 translocation
"hCTGF: human Connective Tissue Growth Factor (SEQ ID NO:2) over-expressed in cells from pcDNA3.1 plasmid or recombinant adenovirus (protein, listed as Homo sapiens, human connective tissue growth factor (CTGF)) MTAASMGPVRVAFVVLLALCSRPAVGQNCSGPCRCPDEPAPRCPAGVSLVLDGCGCCRVCAKQLGELCTERDPCDPHKGLFCDFGSPANRKIGVCTAKDGAPCIFGGTVYRSGESFQSSCKYQCTCLDGAVGCMPLCSMDVRLPSPDCPFPRRVKLPGKCCEEWVCDEPKDQTVVGPALAAYRLEDTFGPDPTMIRANCLVQTTEWSACSKTCGMGISTRVTNDNASCRLEKQSRLCMVRPCEADLEENIKKGKKCIRTPKISKPIKFELSGCTSMKTYRAKFCGVCTDGRCCTPHRTTTLPVEFKCPDGEVMKKNMMFIKTCACHYNCPGDNDIFESLYYRKMYGDMA",FC (hCTGF/Con) glucose transport,"L6 myotubes; Expt 1, Insulin 0 nM",0.78
same,FC (hCTGF/Con) glucose transport,"L6 myotubes; Expt 1, Insulin 10 nM",0.67
same,FC (hCTGF/Con) glucose transport,"L6 myotubes; Expt 1, Insulin 100 nM",0.70
same,FC (hCTGF/Con) glucose transport,"L6 myotubes; Expt 2, Insulin 0 nM",0.79
same,FC (hCTGF/Con) glucose transport,"L6 myotubes; Expt 2, Insulin 10 nM",0.92
same,FC (hCTGF/Con) glucose transport,"L6 myotubes; Expt 2, Insulin 100 nM",1.05
same,FC (hCTGF/Con) glucose transport,"L6 myotubes; Expt 3, Insulin 0 nM",0.79
same,FC (hCTGF/Con) glucose transport,"L6 myotubes; Expt 3, Insulin 10 nM",0.77
same,FC (hCTGF/Con) glucose transport,"L6 myotubes; Expt 3, Insulin 100 nM",0.74
same,Mean FC (CTGF/Con) +/− SEM (n = 3) glucose transport,L6 myotubes; Insulin 0 nM,0.79 +/− 0.004
same,Mean FC (CTGF/Con) +/− SEM (n = 3) glucose transport,L6 myotubes; Insulin 10 nM,0.79 +/− 0.07
same,Mean FC (CTGF/Con) +/− SEM (n = 3) glucose transport,L6 myotubes; Insulin 100 nM,0.83 +/− 0.11
same,Glucose transport (in words),"L6 myotubes; over-expression in L6 myotubes, basal and insulin stimulated",inhibited both basal and insulin stimulated glucose transport
same,FC (hCTGF/Con) glucose transport,"3T3-L1 adipocytes [3]; Expt 1, Insulin 0 nM",0.7
same,FC (hCTGF/Con) glucose transport,"3T3-L1 adipocytes [3]; Expt 1, Insulin 0.05 nM",0.6
same,FC (hCTGF/Con) glucose transport,"3T3-L1 adipocytes [3]; Expt 1, Insulin 0.1 nM",0.6
same,FC (hCTGF/Con) glucose transport,"3T3-L1 adipocytes [3]; Expt 1, Insulin 0.3 nM",0.7
same,FC (hCTGF/Con) glucose transport,"3T3-L1 adipocytes [3]; Expt 1, Insulin 1 nM",0.8
same,FC (hCTGF/Con) glucose transport,"3T3-L1 adipocytes [3]; Expt 1, Insulin 10 nM",0.6
same,FC (hCTGF/Con) glucose transport,"3T3-L1 adipocytes [3]; Expt 2, Insulin 0 nM",0.6
same,FC (hCTGF/Con) glucose transport,"3T3-L1 adipocytes [3]; Expt 2, Insulin 0.05 nM",0.6
same,FC (hCTGF/Con) glucose transport,"3T3-L1 adipocytes [3]; Expt 2, Insulin 0.1 nM",0.7
same,FC (hCTGF/Con) glucose transport,"3T3-L1 adipocytes [3]; Expt 2, Insulin 0.3 nM",0.8
same,FC (hCTGF/Con) glucose transport,"3T3-L1 adipocytes [3]; Expt 2, Insulin 1 nM",0.8
same,FC (hCTGF/Con) glucose transport,"3T3-L1 adipocytes [3]; Expt 2, Insulin 10 nM",0.7
same,FC (hCTGF/Con) glucose transport,"3T3-L1 adipocytes [3]; Expt 3, Insulin 0 nM",0.8
same,FC (hCTGF/Con) glucose transport,"3T3-L1 adipocytes [3]; Expt 3, Insulin 0.05 nM",0.7
same,FC (hCTGF/Con) glucose transport,"3T3-L1 adipocytes [3]; Expt 3, Insulin 0.1 nM",0.7
same,FC (hCTGF/Con) glucose transport,"3T3-L1 adipocytes [3]; Expt 3, Insulin 0.3 nM",0.8
same,FC (hCTGF/Con) glucose transport,"3T3-L1 adipocytes [3]; Expt 3, Insulin 1 nM",0.9
same,FC (hCTGF/Con) glucose transport,"3T3-L1 adipocytes [3]; Expt 3, Insulin 10 nM",0.9
same,Mean FC (hCTGF/Con) +/− SEM (n = 3) glucose transport,3T3-L1 adipocytes [3]; Insulin 0 nM,0.70 +/− 0.03
same,Mean FC (hCTGF/Con) +/− SEM (n = 3) glucose transport,3T3-L1 adipocytes [3]; Insulin 0.05 nM,0.63 +/− 0.06
same,Mean FC (hCTGF/Con) +/− SEM (n = 3) glucose transport,3T3-L1 adipocytes [3]; Insulin 0.1 nM,0.67 +/− 0.02
same,Mean FC (hCTGF/Con) +/− SEM (n = 3) glucose transport,3T3-L1 adipocytes [3]; Insulin 0.3 nM,0.76 +/− 0.05
same,Mean FC (hCTGF/Con) +/− SEM (n = 3) glucose transport,3T3-L1 adipocytes [3]; Insulin 1 nM,0.83 +/− 0.02
same,Mean FC (hCTGF/Con) +/− SEM (n = 3) glucose transport,3T3-L1 adipocytes [3]; Insulin 10 nM,0.75 +/− 0.10
same,Glucose transport (in words),"3T3-L1 adipocytes [3]; over-expression in 3T3-L1 adipocytes, basal and insulin stimulated",inhibited both basal and insulin stimulated glucose transport
same,"Fold Change (Mean hCTGF/Mean LacZ), cells positive for cell surface Glut 4",3T3-L1 adipocytes [2]; Insulin 0 nM,0.97
same,"Fold Change (Mean hCTGF/Mean LacZ), cells positive for cell surface Glut 4",3T3-L1 adipocytes [2]; Insulin 1 nM,0.35
same,"Fold Change (Mean hCTGF/Mean LacZ), cells positive for cell surface Glut 4",3T3-L1 adipocytes [2]; Insulin 10 nM,0.45
same,Glut 4 translocation with insulin (in words),3T3-L1 adipocytes [2],significantly inhibited Glut 4 translocation at all insulin concentrations tested
same,Basal Glut 4 translocation (in words),3T3-L1 adipocytes [2],little or no effect on basal Glut 4 translocation
